Measured values published in US10829799 (UNIVERSITY COURT OF THE UNIVERSITY OF DUNDEE, dated 2020).
Numbering of substitutions follows the chain as printed. Each block holds one binder with its values, some of them ahead of it.

Legend:
[1] = target: T1, UBA7 (ISG15 E1; His-tagged human UBA7) (human, UniProt P41226 1-1012); experiment: covalent activity-based labelling, SDS-PAGE (FIG. 3E)
T1 construct: not shown: N-terminal 6xHis tag of the pFastBacHTB vector
T1 sequence (looked up): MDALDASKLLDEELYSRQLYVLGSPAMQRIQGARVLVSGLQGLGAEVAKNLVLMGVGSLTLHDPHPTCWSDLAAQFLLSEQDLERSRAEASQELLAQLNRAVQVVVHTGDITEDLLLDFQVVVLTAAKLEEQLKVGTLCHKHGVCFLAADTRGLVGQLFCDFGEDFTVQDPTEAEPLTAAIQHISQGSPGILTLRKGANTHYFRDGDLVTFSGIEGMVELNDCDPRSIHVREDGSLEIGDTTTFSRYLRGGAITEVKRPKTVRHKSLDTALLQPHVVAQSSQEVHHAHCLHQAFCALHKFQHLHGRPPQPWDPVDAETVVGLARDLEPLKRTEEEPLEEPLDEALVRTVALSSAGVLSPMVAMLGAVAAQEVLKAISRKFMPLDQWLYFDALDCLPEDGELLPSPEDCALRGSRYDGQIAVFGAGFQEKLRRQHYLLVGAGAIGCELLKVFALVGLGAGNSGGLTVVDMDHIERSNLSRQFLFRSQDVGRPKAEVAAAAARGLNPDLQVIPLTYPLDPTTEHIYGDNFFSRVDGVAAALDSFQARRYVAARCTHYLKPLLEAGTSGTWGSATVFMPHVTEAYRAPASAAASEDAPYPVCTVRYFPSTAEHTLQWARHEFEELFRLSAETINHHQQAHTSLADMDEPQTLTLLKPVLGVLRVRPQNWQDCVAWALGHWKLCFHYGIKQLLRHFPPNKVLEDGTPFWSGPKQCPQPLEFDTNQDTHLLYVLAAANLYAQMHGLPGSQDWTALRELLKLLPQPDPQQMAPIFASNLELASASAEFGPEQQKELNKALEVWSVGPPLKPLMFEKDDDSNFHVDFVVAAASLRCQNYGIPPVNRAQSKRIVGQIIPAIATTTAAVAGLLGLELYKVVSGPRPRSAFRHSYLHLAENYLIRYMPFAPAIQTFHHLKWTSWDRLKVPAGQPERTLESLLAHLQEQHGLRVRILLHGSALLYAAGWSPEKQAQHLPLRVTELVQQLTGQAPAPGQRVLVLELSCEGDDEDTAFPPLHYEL
Experimental: (§1) E2 probes (14 μM) were mixed with E1 enzyme (3.5 μM) and diluted 10× reaction buffer (500 mM Na_2HPO_4 pH 8) or 10×Ub-ATP buffer (500 mM Na_2HPO_4 pH 8, 20 μM ubiquitin, 20 mM ATP) to a final volume of 15-50 μL. Reactions were incubated at 30° C. and 15 μL aliquots were taken at 1 and 5 h time points which were quenched with 5 μL of reducing SDS-gel loading buffer (NuPAGE LDS loading buffer (4×), 715 mM 2-mercaptoethanol). The quenched reaction solutions were boiled for 5 minute at 100° C. and then 4 μL was analysed by SDS-PAGE (NuPAGE Bis-Tris, 4-12%).

[2] = target: T2, endogenous UBA1 in HEK293 protein extract (human, UniProt P22314 2-1058, limits assumed); experiment: probe (25 uM) in HEK293 extract (125 ug), 3 h at 30 C, western blot
T2 construct: In a cell lysate, identified by anti-UBA1 blot and molecular weight
T2 sequence (looked up): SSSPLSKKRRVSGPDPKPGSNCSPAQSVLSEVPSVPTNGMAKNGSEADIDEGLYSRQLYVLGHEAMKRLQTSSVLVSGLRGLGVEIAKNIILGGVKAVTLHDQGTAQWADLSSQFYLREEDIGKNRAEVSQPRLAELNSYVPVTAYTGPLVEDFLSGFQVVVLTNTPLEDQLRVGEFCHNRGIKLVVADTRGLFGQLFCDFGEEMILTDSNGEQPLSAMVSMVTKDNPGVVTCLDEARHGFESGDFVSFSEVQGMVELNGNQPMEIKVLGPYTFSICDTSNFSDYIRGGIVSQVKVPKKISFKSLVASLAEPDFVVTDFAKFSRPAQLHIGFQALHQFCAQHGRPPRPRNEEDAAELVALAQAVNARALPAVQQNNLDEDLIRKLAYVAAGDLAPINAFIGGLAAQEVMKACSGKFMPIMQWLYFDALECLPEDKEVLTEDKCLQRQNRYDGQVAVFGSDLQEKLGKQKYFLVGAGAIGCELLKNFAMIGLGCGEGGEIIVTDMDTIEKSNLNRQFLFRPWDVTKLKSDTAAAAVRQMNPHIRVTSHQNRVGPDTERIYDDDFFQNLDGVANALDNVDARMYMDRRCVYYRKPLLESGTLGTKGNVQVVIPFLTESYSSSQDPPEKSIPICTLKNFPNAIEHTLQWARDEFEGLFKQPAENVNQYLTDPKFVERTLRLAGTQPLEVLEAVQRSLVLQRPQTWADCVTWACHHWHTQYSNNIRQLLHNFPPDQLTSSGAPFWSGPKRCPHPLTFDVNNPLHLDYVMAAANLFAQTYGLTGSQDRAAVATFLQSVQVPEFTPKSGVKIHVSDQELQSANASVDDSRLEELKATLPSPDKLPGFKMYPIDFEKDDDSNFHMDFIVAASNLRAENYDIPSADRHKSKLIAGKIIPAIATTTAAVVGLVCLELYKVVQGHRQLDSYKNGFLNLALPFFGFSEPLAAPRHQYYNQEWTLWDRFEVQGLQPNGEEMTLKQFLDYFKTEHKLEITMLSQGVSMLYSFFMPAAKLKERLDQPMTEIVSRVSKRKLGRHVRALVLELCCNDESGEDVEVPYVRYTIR
Experimental: Labelling was quenched by the addition of 1 part 4×LDS loading buffer (Life Technologies) supplemented with 715 mM 2-mercaptoethanol (BME) to 3 parts probe-treated protein extract. Proteins were resolved by SDS-PAGE (10%) and transferred to nitrocellulose membrane (20 V for 40-60 min) by semi-dry transfer using a Novex Semi-dry device (Life Technologies). Membranes were blocked by incubation with 5% milk powder in phosphate buffered saline+0.1% Tween 20 (PBST) for 1 h. His-tagged species were probed with 1:10000 anti-His primary antibody (Clontech) in PBST+5% milk powder for 30 min at room temperature. Detection was carried out by incubation with 1:2500 anti-mouse-HRP conjugated antibody (Cell Signalling Technologies) in PBST+5% milk powder for 1 h at room temperature. ECL Prime substrate (GE Life Sciences) was used for visualization in accordance with the manufacturers protocol. Probing for UBA1 was carried out with anti-UBA1 primary antibody (Sigma E3152) and incubated for 1 h at room temperature. Detection was carried out by incubation with 1:15000 anti-mouse-HRP conjugated antibody (Cell Signalling Technologies) in PBST+5% milk powder for 1 h at room temperature.
We next tested whether E2 probes could label endogenous proteins in a complex proteome. We prepared additional thioacrylonitrile and thiomethyl acrylate probes built on UBE2D1, UBE2D2, UBE2D3 and UBE2H. […] UBE2H was chosen as it only has a single catalytic cysteine. Human embryonic kidney cell (HEK293) extracts (125 μg) were incubated with empirically determined probe concentrations (5-25 μM).

[3] = target: T3, human Ub E1 activating enzyme UBA1 (recombinant, wild type) (human, UniProt P22314 1-1058); experiment: covalent activity-based labelling, UBA1 3.5 uM with 4 eq. of probe, 30 C, reducing SDS-PAGE
T3 construct: Catalytic cysteine C632
T3 sequence (looked up): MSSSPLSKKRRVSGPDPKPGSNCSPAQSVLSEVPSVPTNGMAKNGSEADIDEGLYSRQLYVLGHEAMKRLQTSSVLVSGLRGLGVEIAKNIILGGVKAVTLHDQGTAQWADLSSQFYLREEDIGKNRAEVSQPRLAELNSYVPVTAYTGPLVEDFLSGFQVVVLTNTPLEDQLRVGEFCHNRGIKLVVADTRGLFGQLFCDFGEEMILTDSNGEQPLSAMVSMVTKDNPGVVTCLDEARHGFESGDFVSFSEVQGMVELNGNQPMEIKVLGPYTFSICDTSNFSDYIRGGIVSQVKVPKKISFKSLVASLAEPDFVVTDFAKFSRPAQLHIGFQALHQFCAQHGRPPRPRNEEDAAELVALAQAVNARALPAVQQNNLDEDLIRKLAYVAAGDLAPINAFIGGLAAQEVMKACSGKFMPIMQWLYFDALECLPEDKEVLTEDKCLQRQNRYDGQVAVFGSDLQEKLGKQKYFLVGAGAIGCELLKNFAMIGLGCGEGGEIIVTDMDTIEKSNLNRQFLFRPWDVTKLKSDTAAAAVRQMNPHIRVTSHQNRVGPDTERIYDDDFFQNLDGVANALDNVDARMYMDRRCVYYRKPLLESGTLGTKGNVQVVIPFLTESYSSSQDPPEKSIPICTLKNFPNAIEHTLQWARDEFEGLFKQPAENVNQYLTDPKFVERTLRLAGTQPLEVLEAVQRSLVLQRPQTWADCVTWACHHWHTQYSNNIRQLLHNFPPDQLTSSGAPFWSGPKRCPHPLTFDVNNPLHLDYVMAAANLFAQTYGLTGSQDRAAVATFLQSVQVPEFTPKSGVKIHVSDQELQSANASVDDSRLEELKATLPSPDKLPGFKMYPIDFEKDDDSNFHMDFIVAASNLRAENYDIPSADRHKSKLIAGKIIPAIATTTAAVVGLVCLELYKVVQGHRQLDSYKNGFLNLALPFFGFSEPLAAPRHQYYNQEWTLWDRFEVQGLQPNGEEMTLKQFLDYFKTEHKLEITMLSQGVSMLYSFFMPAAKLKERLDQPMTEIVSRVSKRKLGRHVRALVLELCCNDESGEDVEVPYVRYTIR
Experimental: as §1

[4] = target: T3, human Ub E1 activating enzyme UBA1 …; experiment: covalent activity-based labelling of UBA1, reducing SDS-PAGE
Experimental: as §1

[5] = target: T3, human Ub E1 activating enzyme UBA1 …; experiment: covalent activity-based labelling, SDS-PAGE (FIG. 3B)
Experimental: as §1

B1: UBE2L6*-=CN (enzyme)
chain: MGSSHHHHHHSSGLEVLFQGPGSMMASMRVVKELEDLQKKPPPYLRNLSSDDANVLVWHALLLPDQPPYHLKAFNLRISFPPEYPFKPPMIKFTTKIYHPNVDENGQICLPIISSENWKPSTKTSQVLEALNVLVNRPNIREPLRMDLADLLTQNPELFRKNAEEFTLRFGVDRPS
modifications: catalytic cysteine labelled with TDMA 1: thioacrylonitrile warhead
- binding result [1]: binds

B2: UBE2L6**-=CN (enzyme)
chain: B1 chain with S114A
modifications: catalytic cysteine labelled with TDMA 1: thioacrylonitrile warhead
- binding result [1]: binds

B3: UBE2H thioacrylonitrile probe (enzyme)
chain: MGSSHHHHHHSSGLEVLFQGPGSMSSPSPGKRRMDTDVVKLIESKHEVTILGGLNEFVVKFYGPQGTPYEGGVWKVRVDLPDKYPFKSPSIGFMNKIFHPNIDEASGTVCLDVINQTWTALYDLTNIFESFLPQLLAYPNPIDPLNGDAAAMYLHRPEEYKQKIKEYIQKYATEEALKEQEEGTGDSSSESSMSDFSEDEAQDMEL
modifications: single catalytic cysteine labelled with TDMA 1 (thioacrylonitrile)
notes: also called UBE2H-=CN
- binding result [2]: binds

B4: UBE2H thiomethyl acrylate probe (enzyme)
chain: B3 chain
modifications: single catalytic cysteine labelled with TDMA 2 (thiomethyl acrylate)
notes: also called UBE2H-VME
- binding result [2]: binds

Further lines, results first:

- binding result [2]: binds
- binding result [3]: binds
B5: UBE2N-=CN (His-tagged UBE2N labelled with (E)-3-tosylacrylonitrile 1; thioacrylonitrile probe) (enzyme)
chain: MGSSHHHHHHSSGLEVLFQGPGSAGLPRRIIKETQRLLAEPVPGIKAEPDESNARYFHVVIAGPQDSPFEGGTFKLELFLPEEYPMAAPKVRFMTKIYHPNVDKLGRICLDILKDKWSPALQIRTVLLSIQALLSAPNPDDPLANDVAEQWKTNEAQAIETARAWTRLYAMNNI
modifications: cysteine labelled with TDMA 1: thioacrylonitrile (activated vinylsulfide) warhead
notes: E2-based activity-based probe; forms a covalent bisthioether with the catalytic cysteine of the E1; also called Ubc13-=CN

- binding result [2]: binds
- binding result [4]: binds
B6: UBE2N-VME (His-tagged UBE2N labelled with (E)-methyl 3-tosylacrylate 2; thiomethyl acrylate probe) (enzyme)
chain: B5 chain
modifications: cysteine labelled with TDMA 2: thiomethyl acrylate warhead
notes: also called Ubc13-VME

- binding result [5]: binds
B7: UBE2L3**-=CN (enzyme)
chain: MGSSHHHHHHSSGLEVLFQGPGSMAASRRLMKELEEIRKSGMKNFRNIQVDEANLLTWQGLIVPDNPPYDKGAFRIEINFPAEYPFKPPKITFKTKIYHPNIDEKGQVCLPVIAAENWKPATKTDQVIQSLIALVNDPQPEHPLRADLAEEYSKDRKKFSKNAEEFTKKYGEKRPVD
modifications: catalytic cysteine labelled with TDMA 1: thioacrylonitrile warhead
notes: also called UBE2L3** thioacrylonitrile probe
